# Values of other authors in patent publication US6835389B1, “Powder Composition for nasal administration” (Teijin Limited, priority 1998, dated 2004).
# Conditions: 10 units of insulin to rabbits, nasal, Example 4 of Kokoku No. 62-42888
substance,measurement,value
insulin,absorption rate calculated from the AUC,≤ 10%
same,maximum blood concentration,≤ 200 μU/ml
same,maximum blood concentration relative to that of the injection administration,about 20%
